{"source": "patent US20180094060A1", "about": "(PIERRE FABRE MEDICAMENT, published 2018)", "binders": {"B1": {"name": "810D12 monoclonal antibody (secreted by hybridoma CNCM I-4893) (antibody, V domains shown)", "VH": "EVQLQQSGPELVKPGASVKMSCKASGHTFTSYMLHWVKQKPGQGLEWLGFINPYNDVTKYNENFKGKATLTSDKSSSTAYMELNSLTSEDSAVYFCVTTAYYGNGRYFDVWGAGTTVTVSS", "VL": "DIQMTQTTSSLSASLGDRVTISCRASQDITNYLTWYQQKPDGTVKVLIYYTSRLYSGVPSRFSGSGSGSDYSLTINNLEQEDIATYFCQQGYSLPWTFGGGTKLEIK", "notes": "Murine monoclonal antibody from a Balb/C hybridoma; The ELISAs used hybridoma supernatant; also called 810D12 antibody; 810D12I-4893"}}, "target": "T1, recombinant human insulin receptor (human, UniProt P06213-2 28-944, limits assumed)", "T1 construct": "ELISA coating protein; also called rhIR; human IR", "T1 sequence (P06213 other isoform, or with tags, fused parts or gaps limits assumed)": "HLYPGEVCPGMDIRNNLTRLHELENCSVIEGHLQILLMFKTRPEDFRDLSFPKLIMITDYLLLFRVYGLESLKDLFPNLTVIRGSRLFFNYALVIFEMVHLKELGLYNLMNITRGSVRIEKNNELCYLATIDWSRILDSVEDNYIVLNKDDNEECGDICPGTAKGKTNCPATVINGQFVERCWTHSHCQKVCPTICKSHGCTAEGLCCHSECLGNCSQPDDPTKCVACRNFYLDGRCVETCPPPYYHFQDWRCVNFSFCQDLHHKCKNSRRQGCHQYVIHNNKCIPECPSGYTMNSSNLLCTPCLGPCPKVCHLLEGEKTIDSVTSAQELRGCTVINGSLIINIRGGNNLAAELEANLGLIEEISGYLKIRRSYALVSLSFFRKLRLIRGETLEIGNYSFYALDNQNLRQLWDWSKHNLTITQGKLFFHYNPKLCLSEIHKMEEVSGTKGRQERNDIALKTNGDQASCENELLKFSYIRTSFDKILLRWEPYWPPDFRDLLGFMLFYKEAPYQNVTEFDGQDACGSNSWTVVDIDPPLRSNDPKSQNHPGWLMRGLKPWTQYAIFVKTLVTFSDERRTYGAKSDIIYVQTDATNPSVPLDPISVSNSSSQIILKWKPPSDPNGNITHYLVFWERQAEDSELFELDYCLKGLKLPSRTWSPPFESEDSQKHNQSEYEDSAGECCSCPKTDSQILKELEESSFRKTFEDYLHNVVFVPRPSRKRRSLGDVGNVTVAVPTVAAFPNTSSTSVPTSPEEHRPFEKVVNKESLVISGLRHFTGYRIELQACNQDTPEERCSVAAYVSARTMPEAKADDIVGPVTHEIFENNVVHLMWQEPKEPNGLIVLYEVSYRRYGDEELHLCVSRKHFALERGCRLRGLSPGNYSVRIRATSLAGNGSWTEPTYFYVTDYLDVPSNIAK", "assay": "direct ELISA, coated protein 1 µg/ml, hybridoma supernatant", "description": "Further characterizations of 810D12 antibody were then performed using hybridoma supernatants such as rhIGF-1R or rmIGF-1R or rhIR ELISA. In all direct ELISAs, proteins of interest were immobilized (1 μg/ml) to the bottom of each well. After saturation, hybridoma supernatants were added to the wells. After a 1-hour incubation period and a washing step, a solution of goat anti-mouse IgG-HRP labelled polyclonal antibody was used for detection, prior to the addition of the TMB substrate. The reaction was stopped with a 1M H₂SO₄ solution before reading the OD with a spectrophotometer at a 450 nm wavelength.", "data": [{"binder": "B1", "values": [{"measurement": "binding result", "value": "no binding (tested: 5 µg/ml)"}]}]}
